Results: article PMC4734687, “Peptide-Based Optical uPAR Imaging for Surgery: In Vivo Testing of ICG-Glu-Glu-AE105” (PLoS ONE, 2016)

Assays:
[1] = Plasma stability of ICG-Glu-Glu-AE105 by HPLC; type: in vitro ADME; conditions: mouse plasma 150 μl, 5 μg in DMSO, 37°C, acetonitrile precipitation, HPLC absorbance area at 780 nm
Procedure: ICG-AE105 (5 μg in DMSO) was added to 150 μl mouse plasma and the solution was incubated at 37°C for either 0, 1, 5 or 30 minutes. After incubation, acetonitrile (200 μl) was added followed by centrifugation at 3500 rpm for 4 minutes. The supernatant was collected, diluted and passed through a 0.45 μm filter. The filtered solution was analyzed on a Dionex UltiMate 300 HPLC using an Onyx Monolithic column (Phenomenex, 50x4.6 mm) and with a flow of 1.5 ml/min. The HPLC mobile phase was 0.1% TFA in H2O:MeCN 90:10 (A) and 0.1% TFA in H2O:MeCN 10:90 (B) and the gradient program: 0–2 min 10% B, 2–20 min 10–100% B, 20–21 100% B, 21–23 min 100–10%B, 23–30 min 10% B.
Each plasma sample was analyzed by HPLC and the absorbance area at 780 nm was calculated. This value was compared to the standard sample and the plasma sample at 0 min to calculated the percentage of intact ICG-AE105 recovered in the supernatant (see Table 1).

[2] = In vitro comparison of fluorescence intensity of ICG and conjugated probe; type: physicochemical
Procedure: The UV-vis absorption spectra were recorded on a Perkin-Elmer Lambda 1050 UV/vis/NIR spectrometer double beam spectrometer using the HBC solvent as baseline. The spectra were recorded in 1 cm path length cuvettes with ICG and ICG-AE105 present in the 10–50 μM range. Excitation and emission spectra and lifetimes were measured using FluoroTime 300 (PicoQuant, Berlin, Germany) system. The spectra were measured through excitation at 725 nm using a Xe-lamp excitation source. The excitation and emission measurements were measured in 1 cm cuvettes at 90° with respect to the excitation light. In the fluorescence measurements the absorbance of the samples were below 0.1 at the maximum of the lowest energy absorption band to avoid inner filter effects. After each fluorescence measurement the absorption spectra were recorded in order to verify that no photobleaching of the sample had occurred during the fluorescence measurement. All excitation and fluorescence spectra were corrected for the wavelength-dependent sensitivity of the detection from 500–900 nm.

uPAR = uPAR (Homo sapiens, UniProt Q03405); assay: Surface plasmon resonance solution competition of the uPA•uPAR interaction (Biacore3000); conditions: indirect solution competition for uPA binding, purified uPAR, non-linear regression, read-out: IC50 as competitive inhibitor of the uPA•uPAR interaction
Procedure: The IC50-value for ICG-Glu-GLU-AE105 as competitive inhibitor of the uPA•uPAR interaction was measured by surface plasmon resonance in a Biacore3000 assay platform as previously published. Subsequent fitting to the binding isotherms by non-linear regression provided the IC50-value.

nude NMRI mice = assay: Observation of adverse effects in imaged mice; type: in vivo, mouse; conditions: 10 nmol i.v., nude NMRI mice with U87MG xenografts, n = 5 per group
Procedure: (§1) 10 nmol of ICG-Glu-Glu-AE105 or ICG were administered to 5 mice each via tail vein injections. 15 h post injection the mice were anaesthetized with 2% isoflurane a full-body optical scan recorded using the acquisition mode outlined above.

[3] = target: T1, human uPAR in U87MG tumor tissue sections (Homo sapiens, UniProt Q03405); assay: Ex vivo fluorescent imaging and uPAR immunohistochemistry of tumor sections; conditions: 4 μm paraffin tumor sections, Odyssey scanner 800 nm, antibody R2 against uPAR
T1 construct: Ex Vivo histology and fluorescence images of s.c. U87MG tumor tissue sections; from tissue; host or cells: s.c. U87MG human glioblastoma xenograft tumors grown in mice
T1 sequence (Q03405 23-335): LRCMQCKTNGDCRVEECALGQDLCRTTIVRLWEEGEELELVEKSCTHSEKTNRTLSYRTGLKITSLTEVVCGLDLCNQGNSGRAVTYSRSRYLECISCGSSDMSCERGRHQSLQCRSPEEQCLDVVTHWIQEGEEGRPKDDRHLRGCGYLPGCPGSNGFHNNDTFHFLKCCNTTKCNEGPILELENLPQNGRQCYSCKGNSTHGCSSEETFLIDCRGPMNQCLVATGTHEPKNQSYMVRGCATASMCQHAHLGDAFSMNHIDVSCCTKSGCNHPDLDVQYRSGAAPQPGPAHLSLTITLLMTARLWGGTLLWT
Procedure: Tissue was formalin fixed in 4% formaldehyde in 24 h and then embedded in paraffin. For all stainings a 4 μm slice tissue were used. Before any staining the sliced tissue were imaged with an Odyssey scanner (LI-COR Biosciences, Lincoln, Nebraska) at 800 nm.
The tissue was incubated for one hour at 60° before being deparaffinized. Thereafter, tissue was pre-treated with proteinase K (Dako, Glostrup, Denmark) for 6 min. The staining was performed with the Dako ARK kit, with the antibody R2 [24] against uPAR.

[4] = tested on: U87MG human glioblastoma xenograft tumors; assay: Optical imaging of U87MG xenograft mice 15 h post injection (tumour to background ratio); type: in vivo, mouse; conditions: IVIS Lumina XR, 15 h post i.v. injection of 10 nmol; for Uptake in the tumor (in words): U87MG xenograft mice, n = 5
Procedure: All animal experiments were performed under a protocol approved by the Animal Research Committee of the Danish Ministry of Justice (2012-15-2934-00064). 5 ×10^6 U87MG cells were suspended in 200 ul PBS and inoculated in both flanks of 6 weeks old nude NMRI female mice (24–28 g; Taconic Europe, Lille Skensved, Denmark). All mice were housed in groups with 12 h light/dark cycle and food and water was available ad libitum. When the tumours reached approx. 500 mm^3 in size the mice were enrolled in the optical imaging protocol.
as §1
After imaging with IVIS Lumina XR the anesthetized mice were moved to a surgical table and real-time tumor imaging with a Fluobeam®800 NIR-camera was performed (Fluoptics, Grenoble, France). The camera was connected to a standard laptop to allow imaging, adjustments of camera functions and recording of images and video sequences. Fluobeam®800 works with a 800 nm excitation laser optimised for ICG imaging.
The TBR values were calculated as tumor-signal divided by background-signal by drawing a ROI over each tumor and place the background ROI in an area with constant background signal. Images from IVIS Lumina XR were processed in the software Living Image, while the images from Fluobeam®800 was processed in ImageJ.

[5] = target: Urokinase-type plasminogen activator receptor (uPAR) (human) (UniProt Q03405)
Sequence of Urokinase-type plasminogen activator receptor (uPAR) (human) (Q03405 23-305): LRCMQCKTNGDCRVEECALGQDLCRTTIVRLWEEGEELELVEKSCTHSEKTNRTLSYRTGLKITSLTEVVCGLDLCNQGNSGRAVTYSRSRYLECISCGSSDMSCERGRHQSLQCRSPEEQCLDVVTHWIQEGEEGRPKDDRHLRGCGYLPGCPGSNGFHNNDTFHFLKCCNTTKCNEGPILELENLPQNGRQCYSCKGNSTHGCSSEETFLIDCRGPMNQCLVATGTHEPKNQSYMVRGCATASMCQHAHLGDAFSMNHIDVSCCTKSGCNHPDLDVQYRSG

IC50 (uPAR) | mean decrease of the max fluorescence signal of the xenograft tumours when 6.7 nmol uPA is injected together with 10 nmol probe, against probe alone [5] | Molecule | Intact ICG-AE105 recovered from supernatant (%) Compared to standard ([1]; 0 min incubation) | Intact ICG-AE105 recovered from supernatant (%) Compared to standard ([1]; 1 min incubation) | Intact ICG-AE105 recovered from supernatant (%) Compared to standard ([1]; 1 min incubation, listed as ICG-AE105) | remaining at 1 min, 33 µg/mL ([1]; 1 min incubation, read-out: Intact ICG-AE105 recovered from supernatant (%) Compared to plasma sample at 0 min) | Intact ICG-AE105 recovered from supernatant (%) Compared to plasma sample at 0 min ([1]; 5 min incubation) | Intact ICG-AE105 recovered from supernatant (%) Compared to standard ([1]; 5 min incubation) | Intact ICG-AE105 recovered from supernatant (%) Compared to standard ([1]; 5 min incubation, listed as ICG-AE105) | Intact ICG-AE105 recovered from supernatant (%) Compared to plasma sample at 0 min ([1]; 30 min incubation) | Intact ICG-AE105 recovered from supernatant (%) Compared to standard ([1]; 30 min incubation) | Intact ICG-AE105 recovered from supernatant (%) Compared to standard ([1]; 30 min incubation, listed as ICG-AE105) | Decrease in fluorescence intensity of conjugated probe compared with ICG [2] | Adverse effects observed in mice (nude NMRI mice) | Co-localization of probe fluorescence with uPAR immunohistochemistry staining [3] | Uptake in the tumor (in words) [4] | Tumour to background ratio (TBR) ([4]; U87MG s.c. xenograft mice, n = 5 mice (n = 10 tumors), mean)
0.134 µM | – | CC(C)C[C@H](NC(=O)[C@H](Cc1ccc(O)cc1)NC(=O)[C@@H](CCCNC(=N)N)NC(=O)[C@@H](CO)NC(=O)[C@H](Cc1ccccc1)NC(=O)[C@H](CC1CCCCC1)NC(=O)[C@H](CC(=O)O)NC(=O)[C@H](CCC(=O)O)NC(=O)[C@H](CCC(=O)O)NC(=O)CCCCC[N+]1=C(C=CC=CC=CC=C2N(CCCCS(=O)(=O)[O-])c3ccc4ccccc4c3C2(C)C)C(C)(C)c2c1ccc1ccccc21)C(=O)N[C@@H](Cc1c[nH]c2ccccc12)C(=O)N[C@@H](CO)C(=O)O [ICG-Glu-Glu-AE105] | 97,2% | 92.3% | 92,3% | 95% | 89,3% | 86.7% | 86,7% | 84,1% | 81.7% | 81,7% | 2 fold | No adverse effects | co-localization of the uPAR staining and the fluorescent probe signal was observed | high uptake | –
– | – | CC1(C)C(/C=C/C=C/C=C/C=C2\N(CCCCS(=O)(=O)O)c3ccc4ccccc4c3C2(C)C)=[N+](CCCCS(=O)(=O)[O-])c2ccc3ccccc3c21 [ICG, indocyanine green] | – | – | – | – | – | – | – | – | – | – | – | No adverse effects | – | No uptake | 1.04±0.04
– | 46.8% | ICG-Glu-Glu-AE105 (peptide) | – | – | – | – | – | – | – | – | – | – | – | – | – | – | –
